# Measured values from patent US20090280138A1 (OXFORD BIOMEDICA UK, published 2009).
# Key:
# [1] = biological target: T1, MHC class I molecule HLA-A*0201 (iTopia plate-bound monomer) (biotin (bound to streptavidin-coated plate)); assay: iTopia off-rate assay, 37 C; fit R^2 0.84
# T1 construct: also called A2
# Description: (§1) The 9 mers were tested for Peptide Binding, Off Rate and Affinity using iTopia Epitope Discovery System in accordance with the manufacturer's instructions. Briefly, 96 well microtitre plates coated with MHC molecules representing different MHC alleles are used to identify candidate peptides. […] Determinations are performed in duplicate using an ELISA plate reader and included allele specific positive controls.
# (§2) A one-phase exponential decay curve, with a plateau given equal to 0, was generated using GraphPad Prism® software, which calculated the t1/2 and goodness-of-fit, as measured by r², for each peptide.
# [2] = biological target: T1, MHC class I molecule HLA-A*0201 (iTopia …); assay: iTopia off-rate assay, 37 C; fit R^2 0.78
# Description: as §1, §2
# [3] = biological target: T2, MHC class I molecule HLA-B*0702 (iTopia plate-bound monomer) (biotin (bound to streptavidin-coated plate)); assay: iTopia off-rate assay, 37 C; fit R^2 0.69
# T2 construct: Commercial iTopia system; also called B7
# Description: as §1, §2
# [4] = biological target: T1, MHC class I molecule HLA-A*0201 (iTopia …); assay: iTopia off-rate assay, 37 C; fit R^2 0.02
# Description: as §1, §2
# [5] = biological target: T1, MHC class I molecule HLA-A*0201 (iTopia …); assay: iTopia off-rate assay, 37 C; fit R^2 0.66
# Description: as §1, §2
# [6] = biological target: T1, MHC class I molecule HLA-A*0201 (iTopia …); assay: iTopia off-rate assay, 37 C; fit R^2 0.64
# Description: as §1, §2
# [7] = biological target: T1, MHC class I molecule HLA-A*0201 (iTopia …); assay: iTopia off-rate assay, 37 C; fit R^2 0.81
# Description: as §1, §2
# [8] = biological target: T1, MHC class I molecule HLA-A*0201 (iTopia …); assay: iTopia off-rate assay, 37 C; fit R^2 0.08
# Description: as §1, §2
# [9] = biological target: T1, MHC class I molecule HLA-A*0201 (iTopia …); assay: iTopia off-rate assay, 37 C; fit R^2 0.79
# Description: as §1, §2
# [10] = biological target: T1, MHC class I molecule HLA-A*0201 (iTopia …); assay: iTopia off-rate assay, 37 C; fit R^2 0.63
# Description: as §1, §2
# [11] = biological target: T1, MHC class I molecule HLA-A*0201 (iTopia …); assay: iTopia off-rate assay, 37 C; fit R^2 0.7
# Description: as §1, §2
# [12] = biological target: T3, MHC class I molecule HLA-A*0301 (iTopia plate-bound monomer) (biotin (bound to streptavidin-coated plate)); assay: iTopia off-rate assay, 37 C; fit R^2 0.96
# T3 construct: also called A3
# Description: as §1, §2
# [13] = biological target: T1, MHC class I molecule HLA-A*0201 (iTopia …); assay: iTopia off-rate assay, 37 C; fit R^2 0.8
# Description: as §1, §2
# [14] = biological target: T2, MHC class I molecule HLA-B*0702 (iTopia …); assay: iTopia off-rate assay, 37 C; fit R^2 0.11
# Description: as §1, §2
# [15] = biological target: T1, MHC class I molecule HLA-A*0201 (iTopia …); assay: iTopia off-rate assay, 37 C; fit R^2 0.9
# Description: as §1, §2
# [16] = biological target: T1, MHC class I molecule HLA-A*0201 (iTopia …); assay: iTopia off-rate assay, 37 C; fit R^2 0.31
# Description: as §1, §2
# [17] = biological target: T1, MHC class I molecule HLA-A*0201 (iTopia …); assay: iTopia off-rate assay, 37 C; fit R^2 0.96
# Description: as §1, §2
# [18] = biological target: T1, MHC class I molecule HLA-A*0201 (iTopia …); assay: iTopia off-rate assay, 37 C; fit R^2 0.75
# Description: as §1, §2
# [19] = biological target: T3, MHC class I molecule HLA-A*0301 (iTopia …); assay: iTopia off-rate assay, 37 C; fit R^2 0.95
# Description: as §1, §2
# [20] = biological target: T1, MHC class I molecule HLA-A*0201 (iTopia …); assay: iTopia off-rate assay, 37 C; fit R^2 0.92
# Description: as §1, §2
# [21] = biological target: T2, MHC class I molecule HLA-B*0702 (iTopia …); assay: iTopia off-rate assay, 37 C; fit R^2 0.95
# Description: as §1, §2
# [22] = biological target: T1, MHC class I molecule HLA-A*0201 (iTopia …); assay: iTopia off-rate assay, 37 C; fit R^2 0.33
# Description: as §1, §2
# [23] = biological target: T1, MHC class I molecule HLA-A*0201 (iTopia …); assay: iTopia off-rate assay, 37 C; fit R^2 0.74
# Description: as §1, §2
# [24] = biological target: T1, MHC class I molecule HLA-A*0201 (iTopia …); assay: iTopia off-rate assay, 37 C; fit R^2 0.85
# Description: as §1, §2
# [25] = biological target: T3, MHC class I molecule HLA-A*0301 (iTopia …); assay: iTopia off-rate assay, 37 C; fit R^2 0.94
# Description: as §1, §2
# [26] = biological target: T1, MHC class I molecule HLA-A*0201 (iTopia …); assay: iTopia off-rate assay, 37 C; fit R^2 0.72
# Description: as §1, §2
# [27] = biological target: T2, MHC class I molecule HLA-B*0702 (iTopia …); assay: iTopia off-rate assay, 37 C; fit R^2 0.44
# Description: as §1, §2
# [28] = biological target: T1, MHC class I molecule HLA-A*0201 (iTopia …); assay: iTopia off-rate assay, 37 C; fit R^2 0.89
# Description: as §1, §2
# [29] = biological target: T1, MHC class I molecule HLA-A*0201 (iTopia …); assay: iTopia off-rate assay, 37 C; fit R^2 0.99
# Description: as §1, §2
# [30] = biological target: T1, MHC class I molecule HLA-A*0201 (iTopia …); assay: iTopia off-rate assay, 37 C; fit R^2 0.57
# Description: as §1, §2
binder,measurement,setting,value
LVELILNHI (also called Peptide No 88) [5T4 9-mer peptide 88 LVELILNHI],t½ half life,[1],0.3 h
SYVFLGIVL (also called Peptide No 178) [5T4 9-mer peptide 178 SYVFLGIVL],t½ half life,[2],5.1 h
same,t½ half life,[3],0.9 h
SNASVSAPS (also called Peptide No 83) [5T4 9-mer peptide 83 SNASVSAPS],t½ half life,[4],15.8 h
LYLPRDVLA (also called Peptide No 112) [5T4 9-mer peptide 112 LYLPRDVLA],t½ half life,[5],3.4 h
EHLPSLRQL (also called Peptide No 70) [5T4 9-mer peptide 70 EHLPSLRQL],t½ half life,[1],1.4 h
ELAALNLSG (also called Peptide No 60) [5T4 9-mer peptide 60 ELAALNLSG],t½ half life,[6],1.6 h
VLLELNSAD (also called Peptide No 167) [5T4 9-mer peptide 167 VLLELNSAD],t½ half life,[7],0.8 h
ELILNHIVP (also called Peptide No 89) [5T4 9-mer peptide 89 ELILNHIVP],t½ half life,[2],1.1 h
PPSLQTSYV (also called Peptide No 175) [5T4 9-mer peptide 175 PPSLQTSYV],t½ half life,[8],12.7 h
LDLSHNPLA (also called Peptide No 74) [5T4 9-mer peptide 74 LDLSHNPLA],t½ half life,[9],5.4 h
NRVLLELNS (also called Peptide No 166) [5T4 9-mer peptide 166 NRVLLELNS],t½ half life,[10],1.3 h
SPLVELILN (also called Peptide No 87) [5T4 9-mer peptide 87 SPLVELILN],t½ half life,[10],2.4 h
ARLALVLLG (also called Peptide No 10) [5T4 9-mer peptide 10 ARLALVLLG],t½ half life,[11],72 min
NNPWVCDCH (also called Peptide No 147) [5T4 9-mer peptide 147 NNPWVCDCH],t½ half life,[12],12 min
HMADMVTWL [5T4 9-mer peptide 151 HMADMVTWL],t½ half life,[1],7.9 h
YEINADPRL (also called Peptide No 202) [5T4 9-mer peptide 202 YEINADPRL],t½ half life,[13],36 min
LSGSRLDEV (also called Peptide No 63) [5T4 9-mer peptide 63 LSGSRLDEV],t½ half life,[14],2.9 h
same,t½ half life,[15],30 min
NRKGIKKWM [5T4 9-mer peptide 189 NRKGIKKWM],t½ half life,[16],10 h
SLVSLTYVS (also called Peptide No 123) [5T4 9-mer peptide 123 SLVSLTYVS],t½ half life,[17],0.9 h
TWLKETEVV [5T4 9-mer peptide 154 TWLKETEVV],t½ half life,[18],6.4 h
VSLTYVSFR [5T4 9-mer peptide 124 VSLTYVSFR],t½ half life,[19],12 min
NQLAVLPAG (also called Peptide No 51) [5T4 9-mer peptide 51 NQLAVLPAG],t½ half life,[20],3.2 h
LPAYVRNLF (also called Peptide No 45) [5T4 9-mer peptide 45 LPAYVRNLF],t½ half life,[21],1.7 h
KVLHNGTLA (also called Peptide No 136) [5T4 9-mer peptide 136 KVLHNGTLA],t½ half life,[2],2.2 h
SLQTSYVFL [5T4 9-mer peptide 176 SLQTSYVFL],t½ half life,[22],12.4 h
FLTGNQLAV (also called Peptide No 49) [5T4 9-mer peptide 49 FLTGNQLAV],t½ half life,[23],10.6 h
MVTWLKETE (also called Peptide No 153) [5T4 9-mer peptide 153 MVTWLKETE],t½ half life,[18],1.2 h
SNHFLYLPR (also called Peptide No 110) [5T4 9-mer peptide 110 SNHFLYLPR],t½ half life,[24],1.2 h
same,t½ half life,[25],54 min
FEGMVVAAL (also called Peptide No 98) [5T4 9-mer peptide 98 FEGMVVAAL],t½ half life,[17],1.1 h
TGNQLAVLP (also called Peptide No 50) [5T4 9-mer peptide 50 TGNQLAVLP],t½ half life,[8],8.7 h
PALCECSEA (also called Peptide No 32) [5T4 9-mer peptide 32 PALCECSEA],t½ half life,[7],2.2 h
LSHNPLADL (also called Peptide No 75) [5T4 9-mer peptide 75 LSHNPLADL],t½ half life,[26],1.3 h
CVNRNLTEV (also called Peptide No 39) [5T4 9-mer peptide 39 CVNRNLTEV],t½ half life,[27],42 min
same,t½ half life,[28],1.3 h
LTNLSSNSD [5T4 9-mer peptide 206 LTNLSSNSD],t½ half life,[11],42 min
LVLLGWVSS (also called Peptide No 12) [5T4 9-mer peptide 12 LVLLGWVSS],t½ half life,[20],2.6 h
ALKVLHNGT (also called Peptide No 135) [5T4 9-mer peptide 135 ALKVLHNGT],t½ half life,[6],1.5 h
LTHLESLHL [5T4 9-mer peptide 129 LTHLESLHL],t½ half life,[13],60 min
LLGWVSSSS (also called Peptide No 13) [5T4 9-mer peptide 13 LLGWVSSSS],t½ half life,[29],1.8 h
VRAGAFEHL (also called Peptide No 67) [5T4 9-mer peptide 67 VRAGAFEHL],t½ half life,[27],24 min
AARTVKCVN (also called Peptide No 36) [5T4 9-mer peptide 36 AARTVKCVN],t½ half life,[16],11.1 h
same,t½ half life,[3],1.4 h
RSFEGMVVA (also called Peptide No 97) [5T4 9-mer peptide 97 RSFEGMVVA],t½ half life,[29],0.7 h
LEDNALKVL (also called Peptide No 133) [5T4 9-mer peptide 133 LEDNALKVL],t½ half life,[30],5.7 h
